Assay results reported in patent US20250276077A1 (IMMUNOME, published 2025).
Changes are numbered by the printed parent chain.

B1: AB-009812 (antibody, mouse IgG2a, V domains shown)
VH: QVQLQQWGAGLLKPSETLSLTCAVYGGSFSDYYWSWIRQPPGKGLEWIGEVNHSGSINYNNYNPSLKSRVTISVDPSKNQFSLKLTSVTAADTAVYYCAKPLRPHCTNGVCYSGDAFDIWGQGTMVTVAS
VL: SYVLTQPPSVSVAPGQTARITCGGNNIGSKNVHWYQQKPGQAPVLVVYDDSDRPSGIPEQFSGSNSGNTATLTISRVEAGDEADYYCQVWDSSSDHLVFGGGTKLTVL
notes: Made on a mouse IgG2a framework
B2: AB-009815 (antibody, mouse IgG2a, V domains shown)
VH: B1 VH with S54R, P76T
VL: B1 VL
notes: as for B1
B3: AB-009816 (antibody, mouse IgG2a, V domains shown)
VH: B1 VH with S54R, P76A
VL: B1 VL
notes: as for B1
B4: AB-009813 (antibody, mouse IgG2a, V domains shown)
VH: B1 VH with S54A
VL: B1 VL
notes: as for B1
B5: AB-010361 (mouse IgG2a format) (antibody, V domains shown)
VH: B1 VH with D31G, V51I, S54R, P76T, T86S
VL: B1 VL with L97V
notes: tested in mIgG2a format
B6: AB-010363 (mouse IgG2a format) (antibody, V domains shown)
VH: B1 VH with D31G, V51I, S54R, P76T, T86S
VL: B1 VL with Q60R, L97V
notes: tested in mIgG2a format
B7: AB-008873 (mouse IgG2a format) (antibody, V domains shown)
VH: B1 VH with S54R
VL: SYVLTQPPSVSVAPGQTARITCGGNNIGSKNVHWYQQKPGQAPVLVVYDDSDRPSGIPEQFSGSNSGNTATLTISRVEAGDEADYYCQVWDSSSDHLVFGGGTKLTVLG
B8: AB-009808 (antibody, mouse IgG2a, V domains shown)
VH: QVQLQQWGAGLLKPSETLSLTCAVYGGSFSDYYWSWIRQPPGKGLEWIGEINHSGSTNYNPSLKSRVTISVDPSKNQFSLKLTSVTAADTAVYYCAKPFRPHCTNGVCYSGDAFDIWGQGTMVTVSS
VL: B1 VL
B9: AB-009806 (antibody, mouse IgG2a, V domains shown)
VH: B8 VH
VL: B1 VL with S29T
B10: AB-009807 (antibody, mouse IgG2a, V domains shown)
VH: B8 VH with S30N, I51V, N58S, P73T, T83S
VL: B1 VL with V44A
B11: AB-009805 (antibody, mouse IgG2a, V domains shown)
VH: B8 VH with F29L, Y33H, P73T, T83S, T86S, Y109H, V123A
VL: B1 VL
B12: AB-010141 (antibody, mouse IgG2a, V domains shown)
VH: B1 VH with D31G, S54R, P76T
VL: B1 VL
B13: AB-010151 (antibody, mouse IgG2a, V domains shown)
VH: B1 VH with V51I, S54R, P76T, T86S, A129S
VL: B1 VL

Molecular target: T1, Human EphA2 (human, UniProt P29317 24-976)
T1 construct: Endogenous EphA2 in fresh frozen human tumor tissue sections, not a recombinant protein; also called ephrin receptor A2; hEphA2
Assay: IHC/IF on frozen human tumor tissue: RCC-clear cell

IHC score | Binder
1 | B1
1 | B2
1 | B3
1 | B4

Molecular target: T1, Human EphA2
Assay: IHC/IF on frozen human tumor tissue: UCEC-clear cell

IHC score | Binder
1 | B1
2 | B2
2 | B3
2 | B4

Molecular target: T2, C-terminally His-tagged hEphA2-FN2 (Thr437-Asn534+His tag) (human, UniProt P29317 437-534)
T2 construct: also called FN2 domain of hEphA2
Assay: SPR Biacore T200, 25 C; mIgG2a captured by anti-mouse Fc, hEphA2-FN2-His analyte; steady-state monovalent KD
Method: Binding of antibodies to the FN2 domain of hEphA2 was measured using the Biacore® T200 SPR system at 25° C. using HBS-EP+ buffer (0.01 M HEPES pH 7.4, 0.15 M NaCl, 3 mM EDTA, 0.005% v/v Surfactant P20). Antibodies in mIgG2a format were captured at levels between 475-715 RU via an anti-mouse Fc antibody immobilized to a CM5 chip. Binding was assessed using a titration of C-terminally His-tagged hEphA2-FN2 (Thr437-Asn534+His tag) associated for 30 s or 75 s at 30 μL/min. Data was double-reference subtracted using both a surface without captured antibody and from injections of HBS-EP+ buffer. The equilibrium response was measured at 4 seconds before the end of association with a window of 5 seconds and fit using the Biacore T200 Evaluation Software 3.1 with the Steady State Affinity Model.

Kd | Binder
1110 nM | B5
1310 nM | B6
2260 nM | B7

Molecular target: T1, Human EphA2
Assay: IHC/IF on frozen human tumor tissue: STS

IHC score | Binder
2 | B1
2 | B2
2 | B3
2 | B4

Molecular target: T1, Human EphA2
Assay: IHC/IF on frozen human tumor tissue: UCEC-papillary

IHC score | Binder
2 | B1
2 | B2
2 | B3
2 | B4

Molecular target: T1, Human EphA2
Assay: IHC/IF on frozen human tumor tissue: Her2+ BRC

IHC score | Binder
2 | B1
2 | B2
2 | B3
1 | B4

Molecular target: T1, Human EphA2
Assay: IHC/IF on frozen human tumor tissue: MELA

IHC score | Binder
2 | B1
2 | B2
2 | B3
2 | B4

Molecular target: T3, Human EphA2 (ephrin receptor A2) on cells (human, UniProt P29317 25-976)
Assay: cell-based or functional assay

ADCC Delta activity (%), A549 | ADCP Delta activity (%), A549 | Binder
1.31% | 12.8% | B8
14.5% | 17.9% | B9
0.4% | 11.5% | B10
5.06% | 17.3% | B11

Molecular target: T1, Human EphA2
Assay: IHC/IF on frozen human tumor tissue: ESO

IHC score | Binder
2 | B1
2 | B2
2 | B3
2 | B4

Molecular target: T1, Human EphA2
Assay: IHC/IF on frozen human tumor tissue: TNBC

IHC score | Binder
1 | B1
1 | B2
1 | B3
1 | B4

Molecular target: T3, Human EphA2 (ephrin receptor A2) on …
Assay: flow cytometry, A549 cells
Method: Surface binding of the antibodies to in vitro grown cell lines was assessed by flow cytometry. Tumor cells were detached from their culture plate using Versene and counted. Cells were staining in BSA-containing buffer with primary antibody for 30 minutes at 4° C. with shaking. Following, cells were washed and stained with secondary PE-labeled antibody for 30 minutes at 4° C. with shaking. Before analysis on an Intellicyt iQue3 scanner, cells were counterstained with DAPI. MedFI values from live, single cells was expressed as fold over isotype control.

Flow Delta activity (MedFI) | EC50 (read off the curve) | Binder
29500 MedFI |  | B8
231000 MedFI | ~20 nM | B9
12700 MedFI |  | B10
75100 MedFI |  | B11

Molecular target: T1, Human EphA2
Assay: IHC/IF on frozen human tumor tissue: PANC

IHC score | Binder
1 | B1
1 | B2
1 | B3
1 | B4

Molecular target: T1, Human EphA2
Assay: IHC/IF on frozen human tumor tissue: NSCLC-SQ

IHC score | Binder
1 | B1
1 | B2
1 | B3
1 | B4

Molecular target: T3, Human EphA2 (ephrin receptor A2) on …
Assay: cell-based or functional assay
Remark: another data set of the same source

ADCC EC50 | Binder
4.6 nM | B12
33.3 nM | B13

Molecular target: T1, Human EphA2
Assay: IHC/IF on frozen human tumor tissue: GAC

IHC score | Binder
2 | B1
2 | B2
2 | B3
2 | B4

Molecular target: T1, Human EphA2
Assay: IHC/IF on frozen human tumor tissue: OVA

IHC score | Binder
2 | B1
2 | B2
2 | B3
2 | B4

Molecular target: T1, Human EphA2
Assay: IHC/IF on frozen human tumor tissue: NSCLC-Adeno

IHC score | Binder
2 | B1
2 | B2
2 | B3
2 | B4

Molecular target: T1, Human EphA2
Assay: IHC/IF on frozen human tumor tissue: CRC

IHC score | Binder
1 | B1
1 | B2
1 | B3
1 | B4

Molecular target: T1, Human EphA2
Assay: IHC/IF on frozen human tumor tissue: PROC

IHC score | Binder
1 | B1
1 | B2
1 | B3
1 | B4

Molecular target: T1, Human EphA2
Assay: IHC/IF on frozen human tumor tissue: RCC-papillary

IHC score | Binder
1 | B1
1 | B2
1 | B3
1 | B4

Molecular target: T1, Human EphA2
Assay: IHC/IF on frozen human tumor tissue: HNC

IHC score | Binder
2 | B1
2 | B2
2 | B3
2 | B4

Molecular target: T1, Human EphA2
Assay: IHC/IF on frozen human tumor tissue: ANC

IHC score | Binder
2 | B1
2 | B2
2 | B3
2 | B4

Molecular target: T1, Human EphA2
Assay: IHC/IF on frozen human tumor tissue: URO

IHC score | Binder
1 | B1
1 | B2
1 | B3
1 | B4

Molecular target: T1, Human EphA2
Assay: IHC/IF on frozen human tumor tissue: UCEC-endometrioid

IHC score | Binder
1 | B1
1 | B2
1 | B3
1 | B4

Molecular target: T1, Human EphA2
Assay: IHC/IF on frozen human tumor tissue: ER+ BRC

IHC score | Binder
1 | B1
1 | B2
1 | B3
1 | B4
